According to article PMC4437517 (Proteins, 2008):

Columns and labels:
SEC = target: the molecule itself; assay: SEC
crystal structure = target: the molecule itself; assay: crystal structure

B1: protein product of the Arabidopsis thaliana gene locus At1g05000 (enzyme, UniProt Q9ZVN4 1-215, looked up)
chain: SKLVEKTTTTEQDNGEDFCRTIIEVSEVNRNVFQAPGGEADPFRVVSGEELHLIPPLNFSMVDNGIFRSGFPDSANFSFLQTLGLRSIIYLCPEPYPESNLQFLKSNGIRLFQFGIEGNKEPFVNIPDHKIRMALKVLLDEKNHPVLIHCKRGKHRTGCLVGCLRKLQKWCLTSIFDEYQRFAAAKARVSDQRFMEIFDVSSFSHIPMSFSCSIR
modifications: selenomethionine-labeled
stoichiometry N (SEC): 2
stoichiometry N (crystal structure): 6
